Where a chain is given by its changes, count along the chain named. Names and notes keep the numbering of the source.
T1: FcγRIIB (human, UniProt P31994 43-217, biotin-labeled)
T1 construct: extracellular domain; Bought protein; also called CD32b
T1 sequence (looked up): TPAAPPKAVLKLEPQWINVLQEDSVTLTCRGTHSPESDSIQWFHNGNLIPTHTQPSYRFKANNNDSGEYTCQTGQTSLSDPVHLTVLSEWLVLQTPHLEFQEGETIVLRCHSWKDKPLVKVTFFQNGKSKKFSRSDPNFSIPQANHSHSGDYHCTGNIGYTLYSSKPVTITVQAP

T2: FcγRIIA^131R (human, UniProt P12318 34-217, biotin-labeled)
T2 construct: extracellular domain; Bought protein; also called RIIAR
T2 sequence (looked up): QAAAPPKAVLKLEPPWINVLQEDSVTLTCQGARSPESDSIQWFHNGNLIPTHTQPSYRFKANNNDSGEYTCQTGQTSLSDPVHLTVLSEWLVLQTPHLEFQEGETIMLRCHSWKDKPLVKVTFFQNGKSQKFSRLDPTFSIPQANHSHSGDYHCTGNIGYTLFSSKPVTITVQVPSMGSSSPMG

T3: FcγRIIA^131H (human, UniProt P12318 34-217, biotin-labeled)
T3 construct: extracellular domain; Bought protein; also called RIIAH
T3 sequence (looked up): T2 sequence (looked up) with R134H

T4: Biotin-FcγRIIB (human, UniProt P31994 43-217, limits assumed, biotin label)
T4 construct: Soluble labelled protein used to stain and sort the display cells; also called human FcγRIIB; CD32b
T4 sequence (looked up): T1 sequence (looked up)

B1: human IgG2 anti-mouse CD40 surface displayed antibody, V234Q/V266L/S267E/H268S/E269V (antibody)
light chain (with the P2A rest): DTVLTQSPALAVSPGERVTISCRASDSVSTLMHWYQQKPGQQPKLLIYLASHLESGVPARFSGSGSGTDFTLTIDPVEADDTATYYCQQSWNDPWTFGGGTKLELKRTVAAPSVFIFPPSDEQLKSGTASVVCLLNNFYPREAKVQWKVDNALQSGNSQESVTEQDSKDSTYSLSSTLTLSKADYEKHKVYACEVTHQGLSSPVTKSFNRGECGSGATNFSLLKQAGDVEENPG
heavy: EVQLVESDGGLVQPGRSLKLPCAASGFTFSDYYMAWVRQAPTKGLEWVASISYDGSSTYYRDSVKGRFTISRDNAKSTLYLQMDSLRSEDTATYYCGRHSSYFDYWGQGVMVTVSSASTKGPSVFPLAPCSRSTSESTAALGCLVKDYFPEPVTVSWNSGALTSGVHTFPAVLQSSGLYSLSSVVTVPSSNFGTQTYTCNVDHKPSNTKVDKTVERKCCVECPPCPAPPQAGPSVFLFPPKPKDTLMISRTPEVTCVVVDLESVDPEVQFNWYVDGVEVHNAKTKPREEQFNSTFRVVSVLTVVHQDWLNGKEYKCKVSNKGLPAPIEKTISKTKGQPREPQVYTLPPSREEMTKNQVSLTCLVKGFYPSDIAVEWESNGQPENNYKTTPPMLDSDGSFFLYSKLTVDKSRWQQGNVFSCSVMHEALHNHYTQKSLSLSPGKLEPPPSTVSNMATVAVLVVLGAAIVTGAVVAFVMKMRRRNTGGKGGDYALAPGSQTSDLSLPDCKVMVHDPHSLA
notes: As m1 with the Fc mutations; copies: 2 + 2
B2: human IgG2 anti-mouse CD40 surface displayed antibody, V266L/S267D/H268D/E269D/P271Q (antibody, name in EU numbering)
light chain (with the P2A rest): B1 light chain (with the P2A rest)
heavy chain: B1 heavy with Q230V, E262D, S263D, V264D, P266Q
notes: As m1 with the Fc mutations
B3: human IgG2 anti-mouse CD40 surface displayed antibody, V266L/S267E/H268S/E269V/P271C (antibody, name in EU numbering)
light chain (with the P2A rest): B1 light chain (with the P2A rest)
heavy chain: B1 heavy with Q230V, P266C
notes: As m1 with the Fc mutations
B4: human IgG2 anti-mouse CD40 surface displayed antibody, V266L/S267M/H268E/P271Q (antibody, name in EU numbering)
light chain (with the P2A rest): B1 light chain (with the P2A rest)
heavy chain: B1 heavy with Q230V, E262M, S263E, V264E, P266Q
notes: As m1 with the Fc mutations
B5: human IgG2 anti-mouse CD40 surface displayed antibody, V266L/S267E/H268S/E269A/P271C (antibody, name in EU numbering)
light chain (with the P2A rest): B1 light chain (with the P2A rest)
heavy chain: B1 heavy with Q230V, V264A, P266C
notes: As m1 with the Fc mutations
B6: human IgG2 anti-mouse CD40 surface displayed antibody, V266L/S267E/H268S/E269G/P271T (antibody, name in EU numbering)
light chain (with the P2A rest): B1 light chain (with the P2A rest)
heavy chain: B1 heavy with Q230V, V264G, P266T
notes: As m1 with the Fc mutations
B7: human IgG2 anti-mouse CD40 surface displayed antibody, V266L/S267E/H268S/E269V (antibody, name in EU numbering)
light chain (with the P2A rest): B1 light chain (with the P2A rest)
heavy chain: B1 heavy with Q230V
notes: As m1 with the Fc mutations
B8: human IgG2 anti-mouse CD40 surface displayed antibody, V266L/S267E/E269K/P271G (antibody, name in EU numbering)
light chain (with the P2A rest): B1 light chain (with the P2A rest)
heavy chain: B1 heavy with Q230V, S263H, V264K, P266G
notes: As m1 with the Fc mutations

Columns and labels:
FcγRIIB = target: T1, FcγRIIB; test: ELISA, coated antibody, biotin-FcγR
Description: (§1) One hundred μl (2 μg/mL) of antibody or mutant thereof were added to the enzyme-linked plate to be coated overnight, then the supernatant was discarded. The plate was blocked with PBS containing 1% BSA for 2 hours, and washed with PBST (PBS containing 0.05% Tween 20). Biotin-labeled FcγR extracellular domain protein (Beijing Sino Biological Co., Ltd) of appropriate concentration was added and incubated at room temperature for 1 hour, then the supernatant was discarded and the plate was washed with PBST. The Biotin-labeled protein was detected by incubating with Streptavidin-HRP (BD BioSciences) at room temperature for 1 hour. The supernatant was removed, and the color-developing solution was added for color development for 20-40 minutes to determine the absorbance of 650 nm (A650).
(§2) Anti-human OX40 antibodies containing these new Fc mutation combinations are expressed and the binding property of the mutant antibody to FcγR are analyzed by Enzyme-linked immunosorbent assay (ELISA).

FcγRIIIA^158F = target: T5, FcγRIIIA^158F (human, UniProt P08637 17-208, biotin-labeled); test: ELISA, coated antibody, biotin-FcγR
T5 construct: extracellular domain; Bought protein; also called RIIIAF
T5 sequence (P08637 17-208): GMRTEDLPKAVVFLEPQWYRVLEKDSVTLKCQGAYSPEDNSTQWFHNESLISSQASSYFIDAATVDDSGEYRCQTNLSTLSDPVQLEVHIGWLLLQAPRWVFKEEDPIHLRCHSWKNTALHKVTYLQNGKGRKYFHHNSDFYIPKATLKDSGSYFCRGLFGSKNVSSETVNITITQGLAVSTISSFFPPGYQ
Description: as §1, §2

FcγRI = target: T6, FcγRI (human, UniProt P12314 16-292, biotin-labeled); test: ELISA, coated antibody, biotin-FcγR
T6 construct: extracellular domain; Bought protein; also called CD64
T6 sequence (P12314 16-292): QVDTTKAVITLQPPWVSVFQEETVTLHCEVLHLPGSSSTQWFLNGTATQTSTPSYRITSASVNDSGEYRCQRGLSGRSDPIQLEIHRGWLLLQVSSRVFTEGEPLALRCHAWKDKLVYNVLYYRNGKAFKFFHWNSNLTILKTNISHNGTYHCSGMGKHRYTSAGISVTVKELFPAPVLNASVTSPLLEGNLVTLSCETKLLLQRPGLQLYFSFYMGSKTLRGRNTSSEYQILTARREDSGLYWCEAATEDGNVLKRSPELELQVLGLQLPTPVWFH
Description: as §1, §2

FcγRIIIA^158V = target: T7, FcγRIIIA^158V (human, UniProt P08637 17-208, biotin-labeled); test: ELISA, coated antibody, biotin-FcγR
T7 construct: extracellular domain; Bought protein; also called RIIIAV; CD16a 158V
T7 sequence (P08637 17-208 F176V): as the sequence (P08637 17-208) above, with F160V counted along it
Description: as §1, §2

FcγRIIA^131R = target: T2, FcγRIIA^131R; test: ELISA, coated antibody, biotin-FcγR
Description: as §1, §2

FcγRIIA^131H = target: T3, FcγRIIA^131H; test: ELISA, coated antibody, biotin-FcγR
Description: as §1, §2

Biotin-FcγRIIB = target: T4, Biotin-FcγRIIB; test: NGS of 3T3 display library C2 flow-sorted for FcγRIIB binding

Row | Molecule | Absorbance value (FcγRIIB) [A650] | Absorbance value (FcγRIIIA^158F) [A650] | Absorbance value (FcγRI) [A650] | Absorbance value (FcγRIIIA^158V) [A650] | Absorbance value (FcγRIIA^131R) [A650] | Absorbance value (FcγRIIA^131H) [A650] | enrichment factor, percentage after 3rd sorting/percentage after 2nd sorting (Biotin-FcγRIIB) [ratio] | percentage after 2nd sorting (Biotin-FcγRIIB) [%] | percentage after 3rd sorting (Biotin-FcγRIIB) [%] | enrichment factor, percentage after 1st sorting/percentage before sorting (Biotin-FcγRIIB) [ratio] | enrichment factor, percentage after 2nd sorting/percentage after 1st sorting (Biotin-FcγRIIB) [ratio] | enrichment factor, percentage after 3rd sorting/percentage before sorting (Biotin-FcγRIIB) [ratio] | increased factor, mutant enrichment factor/wild-type enrichment factor (Biotin-FcγRIIB) [ratio] | percentage after 1st sorting (Biotin-FcγRIIB) [%] | percentage before sorting (Biotin-FcγRIIB) [%]
1 | IgG1 (antibody) | 0.76 | 0.19 | 2.66 | 0.96 | 0.26 | 0.57 | – | – | – | – | – | – | – | – | –
2 | B1 | – | – | – | – | – | – | 11.4 | 0.01 | 0.09 | – | – | – | – | – | –
3 | B2 | – | – | – | – | – | – | 3.8 | 0.49 | 1.88 | 122 | 4.07 | 1880 | 1340 | 0.12 | 0
4 | B3 | – | – | – | – | – | – | 12.6 | 0.01 | 0.11 | – | 6.97 | – | – | 0 | –
5 | B4 | – | – | – | – | – | – | 0.78 | 17.1 | 13.3 | 229 | 6.6 | 1180 | 844 | 2.59 | 0.01
6 | B5 | – | – | – | – | – | – | 7.11 | 0.95 | 6.76 | 60.5 | 3.84 | 1650 | 1180 | 0.25 | 0
7 | B6 | – | – | – | – | – | – | 5.2 | 0.24 | 1.23 | 32.7 | 9.34 | 1590 | 1130 | 0.03 | 0
8 | B7 | – | – | – | – | – | – | 1.95 | 2.13 | 4.15 | 99.9 | 12.8 | 2500 | 1780 | 0.17 | 0
9 | B8 | – | – | – | – | – | – | 2.94 | 0.42 | 1.22 | 214 | 2.92 | 1840 | 1310 | 0.14 | 0

Source: patent US20230220042A1 (SHANGHAI JIAO TONG UNIVERSITY SCHOOL OF MEDICINE, published 2023)
